Results from publication PMC3334620.

What was measured:
[1] = molecular target: T1, Hmlalpha2 (Saccharomyces cerevisiae) (UniProt P0CY09); settings: 200 nM
T1 sequence: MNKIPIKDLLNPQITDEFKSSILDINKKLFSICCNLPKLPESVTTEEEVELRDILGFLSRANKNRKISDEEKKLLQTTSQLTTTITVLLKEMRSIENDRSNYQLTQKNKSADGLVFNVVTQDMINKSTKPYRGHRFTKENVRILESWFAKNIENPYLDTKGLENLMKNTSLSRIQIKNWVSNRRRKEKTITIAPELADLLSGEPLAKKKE

[2] = molecular target: T2, Gcr1 (Saccharomyces cerevisiae) (UniProt P07261); settings: 100 nM
T2 sequence: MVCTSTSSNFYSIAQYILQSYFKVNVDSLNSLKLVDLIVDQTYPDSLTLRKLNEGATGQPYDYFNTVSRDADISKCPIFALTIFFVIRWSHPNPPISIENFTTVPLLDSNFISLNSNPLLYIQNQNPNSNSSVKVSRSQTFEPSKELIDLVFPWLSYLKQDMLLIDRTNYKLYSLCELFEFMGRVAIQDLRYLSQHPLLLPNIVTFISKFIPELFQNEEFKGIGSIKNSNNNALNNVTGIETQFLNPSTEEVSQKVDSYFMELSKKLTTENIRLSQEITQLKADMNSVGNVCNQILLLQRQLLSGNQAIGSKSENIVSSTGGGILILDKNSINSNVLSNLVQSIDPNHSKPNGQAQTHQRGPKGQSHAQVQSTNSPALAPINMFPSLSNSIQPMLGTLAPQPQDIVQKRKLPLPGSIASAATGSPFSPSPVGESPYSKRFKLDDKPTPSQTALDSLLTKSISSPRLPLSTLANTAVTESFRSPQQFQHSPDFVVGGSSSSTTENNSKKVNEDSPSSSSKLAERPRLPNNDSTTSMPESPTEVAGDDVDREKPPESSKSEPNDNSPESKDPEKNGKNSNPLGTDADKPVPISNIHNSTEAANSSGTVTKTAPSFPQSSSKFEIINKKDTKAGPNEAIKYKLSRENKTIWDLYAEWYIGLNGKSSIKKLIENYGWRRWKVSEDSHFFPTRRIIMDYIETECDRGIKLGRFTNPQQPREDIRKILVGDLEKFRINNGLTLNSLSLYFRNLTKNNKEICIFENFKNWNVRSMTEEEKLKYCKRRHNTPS

[3] = molecular target: T3, Ecm22 (Saccharomyces cerevisiae) (UniProt Q05958); settings: 200 nM
T3 sequence: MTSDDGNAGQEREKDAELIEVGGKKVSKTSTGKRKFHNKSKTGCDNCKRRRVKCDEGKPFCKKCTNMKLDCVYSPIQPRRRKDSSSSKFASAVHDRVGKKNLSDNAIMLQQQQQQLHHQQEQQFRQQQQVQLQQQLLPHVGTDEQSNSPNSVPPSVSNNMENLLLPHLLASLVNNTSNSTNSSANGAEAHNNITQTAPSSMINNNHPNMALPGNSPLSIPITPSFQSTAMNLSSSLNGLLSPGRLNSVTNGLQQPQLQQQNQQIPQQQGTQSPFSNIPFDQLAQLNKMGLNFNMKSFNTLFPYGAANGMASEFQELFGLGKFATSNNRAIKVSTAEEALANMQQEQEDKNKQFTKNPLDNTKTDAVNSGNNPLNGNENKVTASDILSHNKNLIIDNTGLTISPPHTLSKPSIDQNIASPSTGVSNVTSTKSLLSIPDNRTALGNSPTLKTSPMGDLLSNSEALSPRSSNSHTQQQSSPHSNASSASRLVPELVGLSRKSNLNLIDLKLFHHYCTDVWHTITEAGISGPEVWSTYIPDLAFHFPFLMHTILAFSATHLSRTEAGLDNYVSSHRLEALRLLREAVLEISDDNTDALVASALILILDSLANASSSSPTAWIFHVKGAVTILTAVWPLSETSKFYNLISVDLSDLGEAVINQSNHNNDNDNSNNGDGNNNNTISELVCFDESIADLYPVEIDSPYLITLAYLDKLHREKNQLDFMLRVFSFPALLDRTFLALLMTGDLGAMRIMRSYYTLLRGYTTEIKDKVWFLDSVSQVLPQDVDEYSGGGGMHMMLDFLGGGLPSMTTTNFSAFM

| Sequence | binding signal (PBM E-score (-0.5 to 0.5)) [1] | binding signal (PBM E-score (-0.5 to 0.5)) [2] | further results |
| --- | --- | --- | --- |
| AATTACAT (double strand) [8-mer AATTACAT] | 0.489 | – | – |
| ACATGTAA (double strand) [8-mer ACATGTAA] | 0.488 | – | – |
| AGCATCCT (double strand) [8-mer AGCATCCT] | – | 0.465 | – |
| AGCTTCCT (double strand) [8-mer AGCTTCCT] | – | 0.485 | – |
| AGGAACGA (double strand) [8-mer AGGAACGA] | – | – | binding signal (PBM E-score (-0.5 to 0.5)) [3]: 0.495 |
| AGGAAGCC (double strand) [8-mer AGGAAGCC] | – | 0.487 | – |
| AGGATGCC (double strand) [8-mer AGGATGCC] | – | 0.47 | – |
| AGGTACGA (double strand) [8-mer AGGTACGA] | – | – | binding signal (PBM E-score (-0.5 to 0.5)) [3]: 0.495 |
| ATTACACA (double strand) [8-mer ATTACACA] | 0.492 | – | – |
| ATTACACG (double strand) [8-mer ATTACACG] | 0.495 | – | – |
| ATTACATA (double strand) [8-mer ATTACATA] | 0.488 | – | – |
| ATTACATG (double strand) [8-mer ATTACATG] | 0.495 | – | – |
| CAGCGTCC (double strand) [8-mer CAGCGTCC] | – | 0.465 | – |
| CATGTAAA (double strand) [8-mer CATGTAAA] | 0.491 | – | – |
| CATGTTAA (double strand) [8-mer CATGTTAA] | 0.489 | – | – |
| CCATGTAA (double strand) [8-mer CCATGTAA] | 0.486 | – | – |
| CCGTGTAA (double strand) [8-mer CCGTGTAA] | 0.486 | – | – |
| CGGAACGA (double strand) [8-mer CGGAACGA] | – | – | binding signal (PBM E-score (-0.5 to 0.5)) [3]: 0.493 |

| Sequence | binding signal (PBM E-score (-0.5 to 0.5)) [1] | binding signal (PBM E-score (-0.5 to 0.5)) [2] | further results |
| --- | --- | --- | --- |
| CGGCTTCC (double strand) [8-mer CGGCTTCC] | – | 0.472 | – |
| CGTGTAAA (double strand) [8-mer CGTGTAAA] | 0.493 | – | – |
| CTCGTACC (double strand) [8-mer CTCGTACC] | – | – | binding signal (PBM E-score (-0.5 to 0.5)) [3]: 0.496 |
| CTCGTTCC (double strand) [8-mer CTCGTTCC] | – | – | binding signal (PBM E-score (-0.5 to 0.5)) [3]: 0.496 |
| CTTTACAC (double strand) [8-mer CTTTACAC] | 0.489 | – | – |
| GAGCTTCC (double strand) [8-mer GAGCTTCC] | – | 0.469 | – |
| GCTTCCTA (double strand) [8-mer GCTTCCTA] | – | 0.468 | – |
| GGAAGCCA (double strand) [8-mer GGAAGCCA] | – | 0.48 | – |
| GGAAGCCC (double strand) [8-mer GGAAGCCC] | – | 0.473 | – |
| GGAATCCA (double strand) [8-mer GGAATCCA] | – | 0.473 | – |
| GGAATCCC (double strand) [8-mer GGAATCCC] | – | 0.464 | – |
| GGATTCCA (double strand) [8-mer GGATTCCA] | – | 0.476 | – |
| GGCATCCA (double strand) [8-mer GGCATCCA] | – | 0.469 | – |
| GGCTTCCA (double strand) [8-mer GGCTTCCA] | – | 0.483 | – |
| GGTACGAC (double strand) [8-mer GGTACGAC] | – | – | binding signal (PBM E-score (-0.5 to 0.5)) [3]: 0.495 |
| TATGTAAA (double strand) [8-mer TATGTAAA] | 0.49 | – | – |
| TCGTGTAA (double strand) [8-mer TCGTGTAA] | 0.49 | – | – |
| TGTGTAAA (double strand) [8-mer TGTGTAAA] | 0.489 | – | – |
